From the supplement of paper PMC12338614
± gives the uncertainty stated by the source.

B1: library; numbered along this chain (parent)
chain: MEVVDPQQLGMFTEGELMSVGMDTFIHRIDSTEVIYQPRRKRAKLIGKYLMGDLLGEGSYGKVKEVLDSETLCRRAVKILKKKKLRRIPNGEANVKKEIQLLRRLRHKNVIQLVDVLYNEEKQKMYMVMEYCVCGMQEMLDSVPEKRFPVCQAHGYFCQLIDGLEYLHSQGIVHKDIKPGNLLLTTGGTLKISDLGVAEALHPFAADDTCRTSQGSPAFQPPEIANGLDTFSGFKVDIWSAGVTLYNITTGLYPFEGDNIYKLFENIGKGSYAIPGDCGPPLSDLLKGMLEYEPAKRFSIRQIRQHSWFRKKHPPAEAPVPIPPSPDTKDRWRSMTVVPYLEDLHGADEDEDLFDIEDDIIYTQDFTVPGQVPEEEASHNGQRRGLPKAVCMNGTEAAQLSTKSRAEGRAPNPARKACSASSKIRRLSACKQQ

Variants of: B1
Assay: STK11 functional score (HeLa growth suppression), rescaled enrichment; synonymous median = 1, nonsense median = 0 (normalised score)
Conditions: with HeLa; variant type: missense
Method: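 Deep mutational scan (TileSeq/POPCode codon randomisation) of full-length codon-optimised STK11 cDNA integrated at a Bxb1 landing pad (AAVS1) in HeLa cells. Restoring functional STK11 suppresses HeLa proliferation. Variant frequencies were measured by NGS before and after about two weeks of growth. The error-corrected enrichment log-ratio was rescaled so that synonymous median = 1 and nonsense median = 0, scores above 1 were compressed, and codon-level and three biological replicate scores were combined; error is the bootstrapped standard error. Scale: synonymous median = 1, nonsense median = 0; below 0.5 = damaging.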

Point of comparison: MEVVDPQQLGMFTEGELMSVGMDTFIHRIDSTEVIYDPRRKRAKLIGKYLMGDLLGEGSYGKVKEVLDSETLCRRAVKILKKKKLRRIPNGEANVKKEIQLLRRLRHKNVIQLVDVLYNEEKQKMYMVMEYCVCGMQEMLDSVPEKRFPVCQAHGYFCQLIDGLEYLHSQGIVHKDIKPGNLLLTTGGTLKISDLGVAEALHPFAADDTCRTSQGSPAFQPPEIANGLDTFSGFKVDIWSAGVTLYNITTGLYPFEGDNIYKLFENIGKGSYAIPGDCGPPLSDLLKGMLEYEPAKRFSIRQIRQHSWFRKKHPPAEAPVPIPPSPDTKDRWRSMTVVPYLEDLHGADEDEDLFDIEDDIIYTQDFTVPGQVPEEEASHNGQRRGLPKAVCMNGTEAAQLSTKSRAEGRAPNPARKACSASSKIRRLSACKQQ [Q37D], STK11 functional score 1.4 ± 0.29. Against it:
- MEVVDPQQLGMFTEGELMSVGMDTFIHRIDSTEVIYFPRRKRAKLIGKYLMGDLLGEGSYGKVKEVLDSETLCRRAVKILKKKKLRRIPNGEANVKKEIQLLRRLRHKNVIQLVDVLYNEEKQKMYMVMEYCVCGMQEMLDSVPEKRFPVCQAHGYFCQLIDGLEYLHSQGIVHKDIKPGNLLLTTGGTLKISDLGVAEALHPFAADDTCRTSQGSPAFQPPEIANGLDTFSGFKVDIWSAGVTLYNITTGLYPFEGDNIYKLFENIGKGSYAIPGDCGPPLSDLLKGMLEYEPAKRFSIRQIRQHSWFRKKHPPAEAPVPIPPSPDTKDRWRSMTVVPYLEDLHGADEDEDLFDIEDDIIYTQDFTVPGQVPEEEASHNGQRRGLPKAVCMNGTEAAQLSTKSRAEGRAPNPARKACSASSKIRRLSACKQQ [Q37F] — lower, 0.309 ± 0.29
- MEVVDPQQLGMFTEGELMSVGMDTFIHRIDSTEVIYHPRRKRAKLIGKYLMGDLLGEGSYGKVKEVLDSETLCRRAVKILKKKKLRRIPNGEANVKKEIQLLRRLRHKNVIQLVDVLYNEEKQKMYMVMEYCVCGMQEMLDSVPEKRFPVCQAHGYFCQLIDGLEYLHSQGIVHKDIKPGNLLLTTGGTLKISDLGVAEALHPFAADDTCRTSQGSPAFQPPEIANGLDTFSGFKVDIWSAGVTLYNITTGLYPFEGDNIYKLFENIGKGSYAIPGDCGPPLSDLLKGMLEYEPAKRFSIRQIRQHSWFRKKHPPAEAPVPIPPSPDTKDRWRSMTVVPYLEDLHGADEDEDLFDIEDDIIYTQDFTVPGQVPEEEASHNGQRRGLPKAVCMNGTEAAQLSTKSRAEGRAPNPARKACSASSKIRRLSACKQQ [Q37H] — within error, 0.921 ± 0.36
- MEVVDPQQLGMFTEGELMSVGMDTFIHRIDSTEVIYAPRRKRAKLIGKYLMGDLLGEGSYGKVKEVLDSETLCRRAVKILKKKKLRRIPNGEANVKKEIQLLRRLRHKNVIQLVDVLYNEEKQKMYMVMEYCVCGMQEMLDSVPEKRFPVCQAHGYFCQLIDGLEYLHSQGIVHKDIKPGNLLLTTGGTLKISDLGVAEALHPFAADDTCRTSQGSPAFQPPEIANGLDTFSGFKVDIWSAGVTLYNITTGLYPFEGDNIYKLFENIGKGSYAIPGDCGPPLSDLLKGMLEYEPAKRFSIRQIRQHSWFRKKHPPAEAPVPIPPSPDTKDRWRSMTVVPYLEDLHGADEDEDLFDIEDDIIYTQDFTVPGQVPEEEASHNGQRRGLPKAVCMNGTEAAQLSTKSRAEGRAPNPARKACSASSKIRRLSACKQQ [Q37A] — within error, 1.34 ± 0.51
- MEVVDPQQLGMFTEGELMSVGMDTFIHRIDSTEVIYGPRRKRAKLIGKYLMGDLLGEGSYGKVKEVLDSETLCRRAVKILKKKKLRRIPNGEANVKKEIQLLRRLRHKNVIQLVDVLYNEEKQKMYMVMEYCVCGMQEMLDSVPEKRFPVCQAHGYFCQLIDGLEYLHSQGIVHKDIKPGNLLLTTGGTLKISDLGVAEALHPFAADDTCRTSQGSPAFQPPEIANGLDTFSGFKVDIWSAGVTLYNITTGLYPFEGDNIYKLFENIGKGSYAIPGDCGPPLSDLLKGMLEYEPAKRFSIRQIRQHSWFRKKHPPAEAPVPIPPSPDTKDRWRSMTVVPYLEDLHGADEDEDLFDIEDDIIYTQDFTVPGQVPEEEASHNGQRRGLPKAVCMNGTEAAQLSTKSRAEGRAPNPARKACSASSKIRRLSACKQQ [Q37G] — within error, 1.08 ± 0.14
- MEVVDPQQLGMFTEGELMSVGMDTFIHRIDSTEVIYCPRRKRAKLIGKYLMGDLLGEGSYGKVKEVLDSETLCRRAVKILKKKKLRRIPNGEANVKKEIQLLRRLRHKNVIQLVDVLYNEEKQKMYMVMEYCVCGMQEMLDSVPEKRFPVCQAHGYFCQLIDGLEYLHSQGIVHKDIKPGNLLLTTGGTLKISDLGVAEALHPFAADDTCRTSQGSPAFQPPEIANGLDTFSGFKVDIWSAGVTLYNITTGLYPFEGDNIYKLFENIGKGSYAIPGDCGPPLSDLLKGMLEYEPAKRFSIRQIRQHSWFRKKHPPAEAPVPIPPSPDTKDRWRSMTVVPYLEDLHGADEDEDLFDIEDDIIYTQDFTVPGQVPEEEASHNGQRRGLPKAVCMNGTEAAQLSTKSRAEGRAPNPARKACSASSKIRRLSACKQQ [Q37C] — lower, 0.0953 ± 0.088
- MEVVDPQQLGMFTEGELMSVGMDTFIHRIDSTEVIVQPRRKRAKLIGKYLMGDLLGEGSYGKVKEVLDSETLCRRAVKILKKKKLRRIPNGEANVKKEIQLLRRLRHKNVIQLVDVLYNEEKQKMYMVMEYCVCGMQEMLDSVPEKRFPVCQAHGYFCQLIDGLEYLHSQGIVHKDIKPGNLLLTTGGTLKISDLGVAEALHPFAADDTCRTSQGSPAFQPPEIANGLDTFSGFKVDIWSAGVTLYNITTGLYPFEGDNIYKLFENIGKGSYAIPGDCGPPLSDLLKGMLEYEPAKRFSIRQIRQHSWFRKKHPPAEAPVPIPPSPDTKDRWRSMTVVPYLEDLHGADEDEDLFDIEDDIIYTQDFTVPGQVPEEEASHNGQRRGLPKAVCMNGTEAAQLSTKSRAEGRAPNPARKACSASSKIRRLSACKQQ [Y36V] — lower, 0.824 ± 0.12
- MEVVDPQQLGMFTEGELMSVGMDTFIHRIDSTEVISQPRRKRAKLIGKYLMGDLLGEGSYGKVKEVLDSETLCRRAVKILKKKKLRRIPNGEANVKKEIQLLRRLRHKNVIQLVDVLYNEEKQKMYMVMEYCVCGMQEMLDSVPEKRFPVCQAHGYFCQLIDGLEYLHSQGIVHKDIKPGNLLLTTGGTLKISDLGVAEALHPFAADDTCRTSQGSPAFQPPEIANGLDTFSGFKVDIWSAGVTLYNITTGLYPFEGDNIYKLFENIGKGSYAIPGDCGPPLSDLLKGMLEYEPAKRFSIRQIRQHSWFRKKHPPAEAPVPIPPSPDTKDRWRSMTVVPYLEDLHGADEDEDLFDIEDDIIYTQDFTVPGQVPEEEASHNGQRRGLPKAVCMNGTEAAQLSTKSRAEGRAPNPARKACSASSKIRRLSACKQQ [Y36S] — lower, 0.558 ± 0.26
- MEVVDPQQLGMFTEGELMSVGMDTFIHRIDSTEVIRQPRRKRAKLIGKYLMGDLLGEGSYGKVKEVLDSETLCRRAVKILKKKKLRRIPNGEANVKKEIQLLRRLRHKNVIQLVDVLYNEEKQKMYMVMEYCVCGMQEMLDSVPEKRFPVCQAHGYFCQLIDGLEYLHSQGIVHKDIKPGNLLLTTGGTLKISDLGVAEALHPFAADDTCRTSQGSPAFQPPEIANGLDTFSGFKVDIWSAGVTLYNITTGLYPFEGDNIYKLFENIGKGSYAIPGDCGPPLSDLLKGMLEYEPAKRFSIRQIRQHSWFRKKHPPAEAPVPIPPSPDTKDRWRSMTVVPYLEDLHGADEDEDLFDIEDDIIYTQDFTVPGQVPEEEASHNGQRRGLPKAVCMNGTEAAQLSTKSRAEGRAPNPARKACSASSKIRRLSACKQQ [Y36R] — within error, 1.3 ± 0.59
- MEVVDPQQLGMFTEGELMSVGMDTFIHRIDSTEVIMQPRRKRAKLIGKYLMGDLLGEGSYGKVKEVLDSETLCRRAVKILKKKKLRRIPNGEANVKKEIQLLRRLRHKNVIQLVDVLYNEEKQKMYMVMEYCVCGMQEMLDSVPEKRFPVCQAHGYFCQLIDGLEYLHSQGIVHKDIKPGNLLLTTGGTLKISDLGVAEALHPFAADDTCRTSQGSPAFQPPEIANGLDTFSGFKVDIWSAGVTLYNITTGLYPFEGDNIYKLFENIGKGSYAIPGDCGPPLSDLLKGMLEYEPAKRFSIRQIRQHSWFRKKHPPAEAPVPIPPSPDTKDRWRSMTVVPYLEDLHGADEDEDLFDIEDDIIYTQDFTVPGQVPEEEASHNGQRRGLPKAVCMNGTEAAQLSTKSRAEGRAPNPARKACSASSKIRRLSACKQQ [Y36M] — within error, 0.892 ± 0.31
- MEVVDPQQLGMFTEGELMSVGMDTFIHRIDSTEVIWQPRRKRAKLIGKYLMGDLLGEGSYGKVKEVLDSETLCRRAVKILKKKKLRRIPNGEANVKKEIQLLRRLRHKNVIQLVDVLYNEEKQKMYMVMEYCVCGMQEMLDSVPEKRFPVCQAHGYFCQLIDGLEYLHSQGIVHKDIKPGNLLLTTGGTLKISDLGVAEALHPFAADDTCRTSQGSPAFQPPEIANGLDTFSGFKVDIWSAGVTLYNITTGLYPFEGDNIYKLFENIGKGSYAIPGDCGPPLSDLLKGMLEYEPAKRFSIRQIRQHSWFRKKHPPAEAPVPIPPSPDTKDRWRSMTVVPYLEDLHGADEDEDLFDIEDDIIYTQDFTVPGQVPEEEASHNGQRRGLPKAVCMNGTEAAQLSTKSRAEGRAPNPARKACSASSKIRRLSACKQQ [Y36W] — lower, -0.265 ± 0.082
- MEVVDPQQLGMFTEGELMSVGMDTFIHRIDSTEVITQPRRKRAKLIGKYLMGDLLGEGSYGKVKEVLDSETLCRRAVKILKKKKLRRIPNGEANVKKEIQLLRRLRHKNVIQLVDVLYNEEKQKMYMVMEYCVCGMQEMLDSVPEKRFPVCQAHGYFCQLIDGLEYLHSQGIVHKDIKPGNLLLTTGGTLKISDLGVAEALHPFAADDTCRTSQGSPAFQPPEIANGLDTFSGFKVDIWSAGVTLYNITTGLYPFEGDNIYKLFENIGKGSYAIPGDCGPPLSDLLKGMLEYEPAKRFSIRQIRQHSWFRKKHPPAEAPVPIPPSPDTKDRWRSMTVVPYLEDLHGADEDEDLFDIEDDIIYTQDFTVPGQVPEEEASHNGQRRGLPKAVCMNGTEAAQLSTKSRAEGRAPNPARKACSASSKIRRLSACKQQ [Y36T] — within error, 1.04 ± 0.72
- MEVVDPQQLGMFTEGELMSVGMDTFIHRIDSTEVILQPRRKRAKLIGKYLMGDLLGEGSYGKVKEVLDSETLCRRAVKILKKKKLRRIPNGEANVKKEIQLLRRLRHKNVIQLVDVLYNEEKQKMYMVMEYCVCGMQEMLDSVPEKRFPVCQAHGYFCQLIDGLEYLHSQGIVHKDIKPGNLLLTTGGTLKISDLGVAEALHPFAADDTCRTSQGSPAFQPPEIANGLDTFSGFKVDIWSAGVTLYNITTGLYPFEGDNIYKLFENIGKGSYAIPGDCGPPLSDLLKGMLEYEPAKRFSIRQIRQHSWFRKKHPPAEAPVPIPPSPDTKDRWRSMTVVPYLEDLHGADEDEDLFDIEDDIIYTQDFTVPGQVPEEEASHNGQRRGLPKAVCMNGTEAAQLSTKSRAEGRAPNPARKACSASSKIRRLSACKQQ [Y36L] — within error, 1.03 ± 0.23
- MEVVDPQQLGMFTEGELMSVGMDTFIHRIDSTEVINQPRRKRAKLIGKYLMGDLLGEGSYGKVKEVLDSETLCRRAVKILKKKKLRRIPNGEANVKKEIQLLRRLRHKNVIQLVDVLYNEEKQKMYMVMEYCVCGMQEMLDSVPEKRFPVCQAHGYFCQLIDGLEYLHSQGIVHKDIKPGNLLLTTGGTLKISDLGVAEALHPFAADDTCRTSQGSPAFQPPEIANGLDTFSGFKVDIWSAGVTLYNITTGLYPFEGDNIYKLFENIGKGSYAIPGDCGPPLSDLLKGMLEYEPAKRFSIRQIRQHSWFRKKHPPAEAPVPIPPSPDTKDRWRSMTVVPYLEDLHGADEDEDLFDIEDDIIYTQDFTVPGQVPEEEASHNGQRRGLPKAVCMNGTEAAQLSTKSRAEGRAPNPARKACSASSKIRRLSACKQQ [Y36N] — within error, 1.6 ± 0.22
